Measured values published in the nanobody polyreactivity screen of Harvey et al. (2022).

Assay: yeast display, Sf9 membrane polyspecificity reagent, FACS + sequencing; frameworks hold sequencing errors
Summary of the method: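 Synthetic nanobody libraries on Saccharomyces cerevisiae BJ5465 were galactose-induced for 36–48 hours, stained 1 hour at 4 °C with 10% biotinylated, detergent-solubilized Sf9 membrane reagent and enriched on streptavidin microbeads. FACS then separated cells into low and high (top ~1%) gates by anti-HA (expression) and streptavidin (reagent binding) fluorescence. Genes were colony-PCR amplified, MiSeq 2 × 250 sequenced and CDR-length filtered. A clone's polyreactivity label is that of its gate of origin.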

| Sequence | polyreactivity (PSR sort gate) |
| --- | --- |
| QVQLEESGGGLVQAAGRLRVSCAASGYIYGYAMGWYKQAPAKEMELVAAITRGGGRTYYADSVKGRFTISRDNAKNTVYFQMHSLKPVDTAVYYCAVAANRGKGFYEYYHWGQGTQVTVSS | high polyreactivity |
| QVQLEESGGGLVQAAGSLRLRCAASGSTLTFNAMGWYRHAPGKERELVAAISWSDTDTYYADSVKGRFTISRDNAKNTVYLQMNSLKPEDTAVYYCASTLSAYEMDYWGQGTQVTVSS | low polyreactivity |
| QVQLEESGGGLVQAGGILRLSCAASGSTFVNNAMGWYRQAPGKERELVAAITSGSRTKYADSVKGRFTMSLDNAKYTVYFQMNSLQPEDTAVYYWNTMRVGWGQGTQVTVSS | high polyreactivity |
| QVQLEESGGGLVQAGGRLRLSCAASGRIFAVNAMGWYRQAPGKERELVASITSRGGSTYYADSVYGRFTISRDNAKNTVYLQMPSLKPEDTAVDYCASPYYSLTTNDYDYSGQGTQVTVSS | high polyreactivity |
| QVQLEESGGGLVQAGGRLRLSCAASGSNTRTYAMGWYRQAHGKERELVAAISSSVCRTYYADSVKGRFTISRDNEKNTVYLQMNSLKPEDTAVYYCNSRTYSYRGYNYWGQGTQVTVSS | high polyreactivity |
| QVQLEESGGGLVQAGGRLRLSCAASGSTFRNYAMGWNITAAGKERELVAAISTNGGRTFYADSVKGRFTISRDNAKNTVYLQMNSLKPEDNAVYYCAAEYGLYAPGYYYWGQGTQVTVSS | low polyreactivity |
| QVQLEESGGGLVQAGGRLRLSCAASGSTYSEYAMGWSRKAPGKQRELVAAINWSGGSTYYADSVKGRFTISRDNAKNTVYLQMNSLKPEDTAVYYCNKVFRHHWYPAYNSWGQGTQVTVSS | low polyreactivity |
| QVQLEESGGGLVQAGGSHRLSCAASGSIIYPYTMGWYRQAPRKERELVAAISGGGRTYYADSVKGRFTISRDNAKNTVYLQMNSLIPEDTAVYYCAARRGYPSGYEYWGQGTQVSVSS | high polyreactivity |
| QVQLEESGGGLVQAGGSIRLSCAASGFIFYYNAMGWYRQAPGKERELVASIRSGGSTNYADSVKGRFTISRDNAKNTVYLQMNSLKPEDTAVYYCAADISRWSHRSKEMYYWGQGTQVTVSS | low polyreactivity |
| QVQLEESGGGLVQAGGSLPLSCAASGVIFGYYAMGWYIQAPGKERELVAAISKSGGSTYYADSVKARFTISRDNAKNTVYVQMNSLIPEDTAVYDCNADPRTASDQLEFDYWGQGTQVNVSS | low polyreactivity |
| QVQLEESGGGLVQAGGSLRIRCAASGSTFVGYAMGWYRQAPGKERELVAAITSSGGRTYYADSVKGRFTISRDNAKNTVYLQMNSLKPEDTAVYYCAAPRARIGGSYDYWGQGTQVTGSS | high polyreactivity |
| QVQLEESGGGLVQAGGSLRLICAASGRIFDYYTMGWYRQAPGKERELVAAISSSGGSTYYADSVKGRFTISRDNAKNTVYLQMNSLKPEDPAVYYCNASVINEMNYWGQGTQVTVSS | low polyreactivity |
| QVQLEESGGGLVQAGGSLRLICAASGRIFWLNAMGWYRQAPGKEREFVASITYGSDSTYYADSVKGRFTISRDNAKNTVYLQMNSLKPEDTAVYYCNREGWHYGPYVYWGQGTQVTVSS | low polyreactivity |
| QVQLEESGGGLVQAGGSLRLICAASGRNFGYYPMGWYRQAPGKERELVAAISGSGGTTYYADSVKGRFTISRDIAKNTVYLQMISLKPEDTAVYYCNAGFGYYWHRGFFQYDYWGQGTQVTVSS | high polyreactivity |
| QVQLEESGGGLVQAGGSLRLICAASGSIFYYKYAMGGYRQAPGKERELVAAITSTGGTTYYADSVKGRFTISRDNAKNTVYLQMNSLKPEDTAVYYCAALAPYIGGVDYDYWGQGTQVTVSS | low polyreactivity |
| QVQLEESGGGLVQAGGSLRLICAAYGIIFYIYTMGWYRQEPVKERELVAAINPGGSRYYADSVKGRFTISRDNAKNTVYLQMNSLKPEDTAVYYCNKLSYGRSGYWGQGTEVTVSS | high polyreactivity |
| QVQLEESGGGLVQAGGSLRLRCAASGRTFHAYVMGWYRQAPGKERELVADISSGGDTYADSVKGRFTISRDNAKNTVYLQMNSLKPEDSAVYYCAVDLIQDESGYWGQGTQVNVSS | low polyreactivity |
| QVQLEESGGGLVQAGGSLRLSCAASGFIFGYYAMGSYRQAPGKERELVAAISKSGGRTRYADSVKGRFTISRDNAKNTVYLQMNSLKPVDTAVYYCATYDPARSTQGYDYWGQGTQVTVSS | high polyreactivity |
| QVQLEESGGGLVQAGGSLRLSCAASGFIIHLYGMGWYRQAPGKERELVAAISSGGRTYYADSVKGRFTISRDNAKNTVDLQMNSMIPEVTAVSYSAVFVAYLYSYYYWGQGTQVTVSS | low polyreactivity |
| QVQLEESGGGLVQAGGSLRLSCAASGFIVYYYAMGWYRQAPGKERELVAAISSGDRTYYADSVKGRFTISRDNAKNTVYLQMNSLKREDTAVYYCNALSRNTQLYDYWGQGTQVTVSS | high polyreactivity |
| QVQLEESGGGLVQAGGSLRLSCAASGFTFDANAMGWYRQAPGKERELVAAISSGGGSTYYADSVKGRFTISRDNPKNTVYLQMNSLKPEDTAVYYCAKVYLVYKSYPYDYWGLGTQVTVSS | high polyreactivity |
| QVQLEESGGGLVQAGGSLRLSCAASGFTFDVYAMGWYRQAPGKERELVAAIDSGGSTNYADSVKGRFTISRDNAKNTVYLQMNSLKPEDTAVYYCAVRYWKTLSHFSYDYWGQGTQVTVSS | low polyreactivity |

| Sequence | polyreactivity (PSR sort gate) |
| --- | --- |
| QVQLEESGGGLVQAGGSLRLSCAASGFTLPANGMGWYRQAPGKERELVAAISFIAGSTYYADSVKGRFTISRDNAKNTVYLQMNSLKPEDTAVYYCSTQFPPSTIYDYWGQGTQVTVSS | low polyreactivity |
| QVQLEESGGGLVQAGGSLRLSCAASGGILDTYAMGWYRPAPWKETELVAANTSGCNTNYADSVKGRFTISRDNAKNTVYLQMISLKQEDTEVYYCNLVTWYYVFRPWEYDYCGQGTQVTVSS | low polyreactivity |
| QVQLEESGGGLVQAGGSLRLSCAASGGNFPVNAIGWYRQAPGKERELVATITYDGGNTYYADSVKGRFTISRDNAKNTVYLQMNSLKPEDTAVYYCAARTPQRSEWTKYGYWGQGTLVTVSS | low polyreactivity |
| QVQLEESGGGLVQAGGSLRLSCAASGGTFDYYAMGWYRQAPRKERELVAVINWSGGRTYYADSVKGRFTISRDNAKNTVYLQMNSLKPEDTAVYYCAAQRPPGQTWNRDYWGQGTQVTVSS | high polyreactivity |
| QVQLEESGGGLVQAGGSLRLSCAASGIIFATYAMGWYRQAPGKDRELVAAISSGGRTYYADSVKGRFTISRDNAKNTVYLQMNSLKPEDTAVYYCAAKSGGRSSLYNYWGQGTQVNVSS | high polyreactivity |
| QVQLEESGGGLVQAGGSLRLSCAASGIIFITYAMGWYRQAPGKEREMVAAITNSGGGTYYADSVKGRFTISRDNAKNTVYLQLNSLKPEDTAVYYCAARKTAYGYRYDYWGQGTQVTVSS | high polyreactivity |
| QVQLEESGGGLVQAGGSLRLSCAASGIIFPRNAMGWYRQAPGKERELVAAITNTGSTKYADSVKGRFTISRDNAKNSVYLHMNSLKPEDTAVYYCAKELGSVPSPSLYDYWGQGTQVTVSS | low polyreactivity |
| QVQLEESGGGLVQAGGSLRLSCAASGIIFTVYAMGWYRQATGTERELVAAITSSGGRTYYADSVKGRFTISRDNAKNTVYLQMNSLKPEDTAVYYCAARLPGYVRKYDYWGQGTQVTVSS | high polyreactivity |
| QVQLEESGGGLVQAGGSLRLSCAASGIIFWYNAMGGSRQAPGKETELVAAISRGGGNTYADSVKGRFTISRDNAKNTVYLQMKSLKEVDTAVYYCAAKRSGYRFNTRWFRLPKYDYWGQGNQVTVSS | low polyreactivity |
| QVQLEESGGGLVQAGGSLRLSCAASGITLGYYAMGWYRPAPGKERELVAAITWSGTSTYYADSVKGRFTISRDNAKNTVYLQMNSLKPEDTADYYCAAGFISQYQERGYWGQGTQVTVSS | low polyreactivity |
| QVQLEESGGGLVQAGGSLRLSCAASGLIFGHNAMGWYRQAPGKERELVAAISRSGTSTYYADSVKGRFTISRDNAKNTVYLQMNSLKPEDNAVYYCAAENYYTAGGSGPIYRRVYWGQGTQVTVSS | low polyreactivity |
| QVQLEESGGGLVQAGGSLRLSCAASGLIFIVYAMGWYRQAPGKERELVAAISFSGGSTYYADSVKGRFTISRDNAKNTVYLQMNSLKPEDTAVYYCAARARYTRRGRNYDYWGQGTQVTVSS | high polyreactivity |
| QVQLEESGGGLVQAGGSLRLSCAASGLIFRYYVMGWYRQAPGKERELVAGITSSGGSTYYADSVKGRFTISRDNAKNTVYLQMNSLKPEDTAVYYCNKGGISGRDYWGQGTQVTVSS | high polyreactivity |
| QVQLEESGGGLVQAGGSLRLSCAASGLIFSAYAMGWYRQAPGKERELVAAIRTGGSTYYADSVKGRFTFSRDNAKNTVYLQMNSLKPVDTAVYYCAASQKGYFYYNVYYWGQGTQVTVSS | high polyreactivity |
| QVQLEESGGGLVQAGGSLRLSCAASGLIIRAYAMGWSRQAPGKERELVAAITSSSGSTYYADSVKGRFTISRDNGKNSVYLQMNSLNPEDTAVYYCNAYSTFGWYDYWGQGTQVTVSS | low polyreactivity |
| QVQLEESGGGLVQAGGSLRLSCAASGLISVWYVMGWYRQAPGKERELVAAIRYGGGRTYYADSVKGRFTISRDNAKNTVYLQMNSLKPEDTAVYYCNARPYRGTYGYWGQGTQVTVSS | high polyreactivity |
| QVQLEESGGGLVQAGGSLRLSCAASGLTFAQNAMGWYRQAPGKEREMVAAITSSGGRTYYADSVKGRFTISRDNANNTVYLQMNSLKPEDTAVYDCNVRYYRYGYTYGYWGQGTQVTVSS | high polyreactivity |
| QVQLEESGGGLVQAGGSLRLSCAASGNIFFVYDMGWYRQAPGKERELVAAISWSGGSTYADSVKGRFTISRDNAKNTVYLQMNSLKPEDTAVYYCAAARYAYKHAFEYWGQGTQVTVSS | low polyreactivity |
| QVQLEESGGGLVQAGGSLRLSCAASGNIFSLNGMGRYRQAPGKEREFVAAITWSVGSTYYADSVKGRFSISRDNAKKTVYLQMNSLKPEDTAVYYCAATVSDLYKNEYYYWGQGTQVTVSS | low polyreactivity |
| QVQLEESGGGLVQAGGSLRLSCAASGNIFVSYAMGWYRQAPGKERELVAAISKSGGSTYYADSVKGRFTISRDNAKNTVYLQMNSLKPEDTAVYYCAARWYNRVKYQKYNYWGQGTQVTVSS | high polyreactivity |
| QVQLEESGGGLVQAGGSLRLSCAASGNTLGPYAMGWYRQATGKERELVAAITWSGGITDYADYVKGRFTISRDNAKNTVYLQMNSLKPEDTAVYYCNSGPSLGIFQGTSVGLRYDYWGQGTQVTLSS | low polyreactivity |
